Experiments:
SEC-MALS = target: the molecule itself; experiment: SEC-MALS
crystal structure = target: the molecule itself; experiment: crystal structure

Row | Protein | stoichiometry N (SEC-MALS) | stoichiometry N (crystal structure)
1 | hOvst-cleaved hZP2-N1N2N3 (domain or fragment) chain 1: not shown chain 2: not shown | 2 | 
2 | mouse ZP2 NTR ΔN1 construct mZP2-N2N3 (domain or fragment, UniProt P20239 135-360, looked up) PAIQAETHEISEIVVCRRDLISFSFPQLFSRLADENQNVSEMGWIVKIGNGTRAHILPLKDAIVQGFNLLIDSQKVTLHVPANATGIVHYVQESSYLYTVQLELLFSTTGQKIVFSSHAICAPDLSVACNATHMTLTIPEFPGKLESVDFGQWSIPEDQWHANGIDKEATNGLRLNFRKSLLKTKPSEKCPFYQFYLSSLKLTFYFQGNMLSTVIDPECHCESPVS |  | 2
